Measurements as given in patent publication US20260008815A1, “CYCLIC PEPTIDE OR SALT THEREOF, AND USES THEREOF” (FUJIFILM Corporation, priority 2023, published 2026).
Bridge positions count the residues as written; N and C are the ends. Ends that are not written are not given here. COCH2 = acetyl group that carries the bridge

These binders were tested against T1, Recombinant Human FGFR2 alpha (IIIc) Fc Chimera Protein, CF (R&D systems, 712-FR-050) (human, UniProt P21802 22-377) (assay: ELISA on plate-bound FGFR2-Fc).
T1 construct: bought; not shown: Fc part of the chimera
Outline: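 Plate-immobilized FGFR2 alpha (IIIc)-Fc (5 ng/well) incubated with peptide 3 h at room temperature, then anti-Myc antibody 2 h and chemiluminescent ELISA substrate. Signal corrected by subtracting FGFR-free wells; binding affinity scored into categories from the dose-response.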

T1 sequence (P21802 22-377, change not shown): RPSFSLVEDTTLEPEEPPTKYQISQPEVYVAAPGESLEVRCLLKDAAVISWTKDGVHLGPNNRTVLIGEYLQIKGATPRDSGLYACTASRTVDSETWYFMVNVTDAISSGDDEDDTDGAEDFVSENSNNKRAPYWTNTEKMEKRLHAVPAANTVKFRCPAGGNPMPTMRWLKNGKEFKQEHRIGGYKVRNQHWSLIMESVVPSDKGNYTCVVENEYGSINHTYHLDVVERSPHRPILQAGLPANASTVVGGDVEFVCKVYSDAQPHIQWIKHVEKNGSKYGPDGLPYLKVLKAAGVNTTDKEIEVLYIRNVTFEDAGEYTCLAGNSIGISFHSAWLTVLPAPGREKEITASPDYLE

| ELISA luminescence signal at 10 nmol/L peptide, relative to SEQ ID NO: 47 (=1) [ratio] | Binder |
| --- | --- |
| 0.1 to 0.5 | HCSQHQTTYYQIYAYLHAIK(COCH2)I (thioether 2-20 (inferred)) [cyclic peptide SEQ ID NO: 408] |
| 0.1 to 0.5 | ECDTADYPQEWIQDVYQYLYK(COCH2)R (thioether 2-21 (inferred)) [cyclic peptide SEQ ID NO: 427] |
| 0.1 to 0.5 | VCTQPQQDFELIYQYLYQLAK(COCH2)Q (thioether 2-21 (inferred)) [cyclic peptide SEQ ID NO: 424] |
| 0.1 to 0.5 | QCDQDAIQWVYDLQYYRVWHK(COCH2)V (thioether 2-21 (inferred)) [cyclic peptide SEQ ID NO: 413] |
| 0.1 to 0.5 | ECDQAQQVYALIYRYLYQLQK(COCH2)V (thioether 2-21 (inferred)) [cyclic peptide SEQ ID NO: 428] |
| 0.1 to 0.5 | WCFTEGIQSTVQLTYSYLYK(COCH2)L (thioether 2-20 (inferred)) [cyclic peptide SEQ ID NO: 423] |
| 0.1 to 0.5 | YCEAQPYYFQLYRLWHRQEK(COCH2)P (thioether 2-20 (inferred)) [cyclic peptide SEQ ID NO: 420] |
| 0.1 to 0.5 | VCLDEQQALFHQYYRITRRK(COCH2)V (thioether 2-20 (inferred)) [cyclic peptide SEQ ID NO: 421] |
| 0.1 to 0.5 | QCLTQRVYLRQLAYYRLYRK(COCH2)I (thioether 2-20 (inferred)) [cyclic peptide SEQ ID NO: 405] |
| 0.1 to 0.5 | YCTQEQAFRQLAYYQIFRRSK(COCH2)S (thioether 2-21 (inferred)) [cyclic peptide SEQ ID NO: 422] |
| 0.1 to 0.5 | QCQLYYLYQYTIAIK(COCH2)T (thioether 2-15) [cyclic peptide SEQ ID NO: 384] |
| 0.1 to 0.5 | QCQLYYLYQYAYALK(COCH2)V (thioether 2-15) [cyclic peptide SEQ ID NO: 383] |
| 0.1 to 0.5 | YCPPQLVYLYQYLYK(COCH2)L (thioether 2-15) [cyclic peptide SEQ ID NO: 380] |
| 0.1 to 0.5 | QCQFLNYVNHVQWHYFWVFK(COCH2)S (thioether 2-20) [cyclic peptide SEQ ID NO: 401] |
| 0.1 to 0.5 | RCHHNFHHARQHGFFYHYK(COCH2)R (thioether 2-19) [cyclic peptide SEQ ID NO: 388] |
| 0.1 to 0.5 | RCHHNFHHARQHGFFWHYK(COCH2)R (thioether 2-19) [cyclic peptide SEQ ID NO: 389] |
| 0.5 to 0.7 | RCHHNFHHARQWGFFHHYK(COCH2)R (thioether 2-19) [cyclic peptide SEQ ID NO: 386] |
| 0.1 to 0.5 | RCHHNFHHARQHRFFHHYK(COCH2)R (thioether 2-19) [cyclic peptide SEQ ID NO: 387] |
| 0.5 to 0.7 | QCAYYHLYQYLHQLK(COCH2)V (thioether 2-15) [cyclic peptide SEQ ID NO: 385] |
| 0.1 to 0.5 | GCGYTQLHYQHLFAWLHARK(COCH2)V (thioether 2-20 (inferred)) [cyclic peptide SEQ ID NO: 425] |
| 0.5 to 0.7 | ACRRANWIHPIQWFFFHVYK(COCH2)H (thioether 2-20) [cyclic peptide SEQ ID NO: 403] |
| 0.5 to 0.7 | LCVQGNYQNPTQWYYFQLYK(COCH2)W (thioether 2-20 (inferred)) [cyclic peptide SEQ ID NO: 407] |
| ≥ 0.7 | KCQNFINPVQWRYFQHYKN (not fully specified; thioether ring (C)-(K(acetyl))) [cyclic peptide SEQ ID NO: 68] |

| ELISA luminescence signal at 10 nmol/L peptide, relative to SEQ ID NO: 47 (=1) [ratio] | Binder |
| --- | --- |
| ≥ 0.7 | PCEQQNFHSVIQWHFFAQYK(COCH2)N (thioether 2-20 (inferred)) [cyclic peptide SEQ ID NO: 406] |
| 0.1 to 0.5 | QCEYALQYYRFYVAQRHWVDK(COCH2)L (thioether 2-21 (inferred)) [cyclic peptide SEQ ID NO: 412] |
| ≥ 0.7 | WCQESSNYLAPLQWYFFNWYK(COCH2)T (thioether 2-21 (inferred)) [cyclic peptide SEQ ID NO: 410] |
| 0.1 to 0.5 | LCTQFPASQRYYFALYRLWHK(COCH2)S (thioether 2-21 (inferred)) [cyclic peptide SEQ ID NO: 416] |
| ≥ 0.7 | LCNNWENYFDWLQWSYYIAYK(COCH2)E (thioether 2-21 (inferred)) [cyclic peptide SEQ ID NO: 409] |
| 0.1 to 0.5 | KCPQNFINPVQWRYFQHYAKN (thioether ring (C)-(K(acetyl))) [cyclic peptide SEQ ID NO: 69] |
| ≥ 0.7 | PCEVYNYWYPTQWFFFTQFK(COCH2)K (thioether 2-20; not fully specified; printed as P-(C)-EVYNYWYPTQWFFFTQF-(K(acetyl))-K) [cyclic peptide SEQ ID NO: 402] |
| 0.1 to 0.5 | QCPRQLYYLYLYLSK(COCH2)I (thioether 2-15) [cyclic peptide SEQ ID NO: 378] |
| 0.1 to 0.5 | PCDRQLYYLYQYIHK(COCH2)T (thioether 2-15) [cyclic peptide SEQ ID NO: 382] |
| 0.1 to 0.5 | NCQLYYTYLYLHTLK(COCH2)F (thioether 2-15) [cyclic peptide SEQ ID NO: 379] |
| 0.1 to 0.5 | DCHTREDWQIHHLYQLLYQLK(COCH2)Y (thioether 2-21 (inferred)) [cyclic peptide SEQ ID NO: 419] |
| 0.1 to 0.5 | LCQIYLYLTALQQGFEDFYPK(COCH2)N (thioether 2-21 (inferred)) [cyclic peptide SEQ ID NO: 417] |
| 0.1 to 0.5 | PCDPLNLQQWYTAVYQLWHK(COCH2)R (thioether 2-20 (inferred)) [cyclic peptide SEQ ID NO: 426] |
| 0.5 to 0.7 | KCAPQNFINPVQWRYFQHYKN (thioether ring (C)-(K(acetyl))) [cyclic peptide SEQ ID NO: 70] |
| ≥ 0.7 | VCQQDNYFYPQQWFFFVHYK(COCH2)H (thioether 2-20) [cyclic peptide SEQ ID NO: 400] |
| 0.1 to 0.5 | DCIRPYDQLQLIYQYLYQLK(COCH2)K (thioether 2-20; not fully specified; printed as D-(C)-IRPYDQLQLIYQYLYQL-(K(acetyl))-K) [cyclic peptide SEQ ID NO: 404] |
| 0.1 to 0.5 | YCDWVEVANARQLAYYTLYRK(COCH2)K (thioether 2-21) [cyclic peptide SEQ ID NO: 415] |
| 0.1 to 0.5 | HCLHYLYQYLYTVK(COCH2)Y (thioether 2-14) [cyclic peptide SEQ ID NO: 377] |
| 0.1 to 0.5 | VCQEYYLYQYVYELK(COCH2)Y (thioether 2-15) [cyclic peptide SEQ ID NO: 381] |
| 0.1 to 0.5 | YCNYEWDGARRQIAYYRIFLK(COCH2)L (thioether 2-21 (inferred)) [cyclic peptide SEQ ID NO: 414] |
| 0.1 to 0.5 | DCLRQQVYQYLYILFQNDIAK(COCH2)D (thioether 2-21 (inferred)) [cyclic peptide SEQ ID NO: 418] |
| ≥ 0.7 | TCVDKDNWYNHVQWQYFFLYK(COCH2)Q (thioether 2-21) [cyclic peptide SEQ ID NO: 411] |
